# Reference: the DeepSol protein solubility set
# Experiment: soluble on expression in E. coli; label from the status in PepcDB or PDB records
row,Sequence,soluble on expression in E. coli
1,MVKQVGNTEIKENHRASCHCGAVVLELYLPNGIEKPRRCDCSICRRKGAIVGSVPLANIKILKGESELKLYQFNTGTAKHYFCSNCGIYTHHQRRSDPTEYGYNIGCLEGVNPYELGAIEVMDGVNHPADRKKILEHHHHHH,not soluble
2,MVKSMIAVISDIHSNLEALNAVLNDIKNRGIKKIFCLGDIVGYGANPNECVELIRDLNCLSVVGNHDYGVLGKESLDYFNKYGAIAILWTKKVIKNENLKFLDSLPLIIEENIKGKKVIFSHANPKHPEIWEYLFPDYVDDVFNYGDLIFVGHSHIPFVNSEEGNLLLHEGKIYLDEDKKYLINPGSVGQPRDGINKASYCIFDEKDFKIEIVRVEYDIKKAYEKIVKNRLPEWLGERLFLGR,soluble
3,MVKVTYDIPTCEDYCALRINAGMSPKTREAAEKGLPNALFTVTLYDKDRLIGMGRVIGDGGTVFQIVDIAVSKSYQGQDYGSLIMEHIMKYIKNVSVESAYVSLIADYPADKLYAKFGFMPTEPDSGGMYIKY,soluble
4,MVLAALVLVLEGEGLPEPLGLRGFFYGLLREVAPEVHDQGENPFALGFGGREGAAWARVSLLVEGLYARLAPRLYALEGEEVRLGPPFRVRAVLQEGHPWAGVSTYPRLFQGPPSRDLALRFASPTFFRRKGVHYPVPEPRLVLESLLRRLEAFGPLKAPEGVREALLERTTVRSLEGRTLPARTEVDTAGFVGRVVYHLPRATEEEALWLSALGRFAFYSGVGAKTSLGYGRARAESA,soluble
5,MVLPALPAPPVCDSQNECVGWLGVAYSAVVDVIRAAAHEGVYIEPEARGRLDALREWIYYNYYTERAKRRDRRRRSVCHARTWFCFRKYDYVRRSIWHDTTTNTISVVSAHSVQ,soluble
6,MVLQIMLLTKPVPLYPPYIDLCDFDFDDYPQLDKIFSSNEPWWLEQFNWGKIFLTYIGRNKSAHTYERFRNDVERFLLWSFIVKKKPIDQLRKSDLLEYADFCWQPPVDWIGTSNQERFKITNGYSAANELWFPYKIQAPKSLKSQFVIDKKKYRPSQQTLSSMFTAIIVFYNYLMAEDFCIGNPAQIAKKDCRHFIIDSQVKEIKRLTGSQWQFVLDTAVEMADENAMFERNLFVIASLKTLFLRISELSERPNWSPTMGHFWQDDDENWWLKIFGKSRKLRDITVPIDFLPFLERYRASRGLLGLPSSNENSILVEKVRGQGGMTSRHLRRLVQSVFDQAHENMRRSEGENKALKLKEASAHWLRHTGASMEIERGRPLKDISEDLGHASMATTDTVYVQSENKKRAESGKRRKVD,not soluble
7,MVLTEDFGYPLSRIKLEYEVTFGREKKRADIVIFDKQQTDSPYIIIEVKKPKLKDGKEQLKSYCNATGAPIGVWSNGKSISYYHRKDPNYFEDISNIPRADQKLSDILSERWTIADLIEKDKLISERKSLKDLILEMEDEVLAGAGVDVFEEVFKLIFTKLFDEMESGRNNERNLEFRNYGDTETELKERIQNLFDKARDKWEGVFSPDAKIQLTPSHLSVCVASLQDVKLFNSNLDVVDEAFEYLINKSSKGEKGQYFTPRYVIDMCVKMLNPTANEKMIDTASGSCGFPVHTIFHVWENILKEKGLERSHLFTLEQKPAECTDYVNDNVFAIDFDEKAVRVARTLNLIAGDGQTNVLHLNTLDYERWEQNLDSEDWQDTYFEGWKKLKKLRTRKDSYRDFTFDIVMANPPFAGEVKESRILAKYDMSRSMSLEKVKIAPKGATIVEGEPTFSEALANTGETIYQMSDGTYRKTKLKQAGNMSRDILFVERNLDFLKPGGRMAIVLPQGRFNNSSDKALREYIADRCRILAVVGLHGNVFKPHTGTKTSVLFVQKWDEELCPRVEDYNIFFATMQEPSKDNSGDKIYRSTTNEEGENVPLLDTHGHLIVKHDLFNHDGLTEDGIAEAFAEFAKKERLSFFADAPLTK,not soluble
8,MVMEVDEPAVAATTSQNQPQEHANDFDMDTSEGPIENDETFEPVDQINWKFNQVKGNIDADVHTEADVISCVEFSHDGEYLATGDKGGRVVIFQRDQSGKYVKGVRSREYNVYSTFQSHEPEFDYLKSLEIDEKINQIRWLKKKNAANFILSTNDKTIKLWKISERERKIGDDAWNLPRTNRINTSSFRGRLQIPSIVPMELIVEASPRRVYGNAHTYHVNSISVNSDQETFLSADDLRVNLWNLEITNESFNIVDIKPANMEELTEVITAAEFHPTQCNWFVYSSSKGSIRLCDMRDRALCDAYAKIFEEPEDPQSRSFFSEIIASVSDVKFSHNGRYLLTRDYLTVKVWDLNMESQPVETYPVHNYLRTKLCALYENDSIFDKFECDWSGDDKHILTGSYHNLFRSYARGNNQDAKTWEARPQEPHSQLRSRFVVPSAKRKRNNLSSSGETTEEDLSSDQLQFDRKILHTAWHPKDNIIALAATNNLYIFSDV,not soluble
9,MVMKLIKRSLLLLGAVLLITLPAYSQNDDIFEDDIYTSRKEIRKQNQVKDWQNQEDGYGDDTEYTVASDRDIDAYNRRDGQSYDGKKLSKDKKRDSTRSSVPGRYSRRLARFYKPNTIVISGADNVYVTDDGEYFVYGDEYYDDASSVNIYINSPWCDPFPYTSWYPSFSGWYNYTWNYPWFYYGSHIGWGGYYPGYNWYWSYYYDPFYNPYGIGMGWGYPYGWGSYYGWGGYPGVIHHYHHYPKKTYSNGQHSGAYYSYGRPNRIKGGTSGAKLGTGRYDRIQNSSSQKNKFGLQSNKPNNNLQNVKSGRTGRANRDRNIETVTPNNGQKQNRPVFQQNQSGNDRPTGRNIRSERQGENNDRTFSTPSRSNSNGGFSTPSRSSSGSMSGGGGRSGRGRN,not soluble
10,MVNRFREKLKPDQYLCRIEGTQFVLVSLENDVSNITQIADELRNVVSKPIMIDDNPFPLTLSIGISYDVGKNRDYLLSTAHNAMDYIRKNGGNGWQFFSPAMNEMVKERLVLGAALKEAISNNQLKLVYQPQIFAETGELYGIEALARWHDPQHGHVPPSRFIPLAEEIGEIENIGRWVIAEACRQLAEWRSQNIHIPALSVNLSALHFRSNQLPNQVSDAMQAWGIDGHQLTVEITESMMMEHDTEIFKRIQILRDMGVGLSVDDFGTGFSGLSRLVSLPVTEIKIDKSFVDRCLTEKRILALLEAITSIGQSLNLTVVAEGVETKEQFEMLRKIHCRVIQGYFFSRPLPAEEIPGWMSSVLPLKI,not soluble
11,MVPAPEAIRQALQERLLARLDHPDPLYRDLLQDYPRRGGKMLRGLLTVYSALAHGAPLEAGLEAATALELFQNWVLVHDDIEDGSEERRGRPALHRLHPMPLALNAGDAMHAEMWGLLAEGLARGLFPPEVLLEFHEVVRRTAYGQHLDLLWTLGGTFDLRPEDYFRMVAHKAAYYTAVAPLRLGALLAGKTPPAAYEEGGLRLGTAFQIVDDVLNLEGGEAYGKERAGDLYEGKRTLILLRFLEEAPPEERARALALLALPREAKPEAEVGWLLERLLASRALAWAKAEAKRLQAEGLALLEAAFQDLPGKEALDHLRGLLAALVERRA,soluble
12,MVPSNAESQSVVVIGAGIGGLTTAALLAQQGYRVKVYEQAAIVGGCASTFRRRGFIFDVGATQVAGLEPGGIHHRIFRQLQVDLPEATLCDPACAVFLPGEKQPINVWHDPERWQREREQQFPGSGRFWQLLQTLFQISWRFQGRDPVLPPRSMWDLGQLLGALRPDTLLTAPFVPLTVGDTLRLLGLGSDQRLKTFLDLQLKLYSQVGADETALLYAATALSVSQGPQGLWHLQGSMQTLGDRLVEALKNHGGELFCSQRVEQIHCGQGYVEGVTVRDVRSGEVRQEKAQQVVANLTVQNLLQALDQPLPGYQKRVTNLPSGSGAFVIYLGVKEDAIPPDCAPHLQFLYDHQGPIGENNSLFVSVSKPGDGRAPRGCRTVIASSFTDVAPWWNASREQYQALKESYTTTAISRLGEYFNLDESTIVHQESATPRTFDRYTARDQGIVGGVGQRLTTFGPFGFAPRTPIRNLWLVGDSVHPGEGTAGVSYSALTIARQICASGATNSLEHHHHHH,not soluble
13,MVRFRREGVRLDQAVAEALSVSRAKAQAWIQAGRVRVGDRVVLKPAYRLKGEEVAVEPVEEAPMVLPEDLPIPILYEDEDVLALNKPPGLLTHPAPGVYSGTVVNLLLARYYGPVEKGPPELVRPGIVHRLDKDTSGVLVVAKHGGDLEGLARAFRDRLVMKRYLAITEGHPREGVLIAPIGRHPRERHKMHVGGLAARYAETEFQVLATAGPYALVEARPHTGRTHQIRVHLKYLGAPILGDELYGRKSPHIGRQALHAYELRIPHPRTGRILELLAPVPQDMAAAWEALGGRWPEEVVREGYAGAQ,soluble
